Assay [1] addresses T1, NPR-C (natriuretic peptide receptor C), expressed on Hek293 cells (UniProt P17342 27-541, limits assumed).
T1 construct: whole, on cells
T1 sequence (looked up): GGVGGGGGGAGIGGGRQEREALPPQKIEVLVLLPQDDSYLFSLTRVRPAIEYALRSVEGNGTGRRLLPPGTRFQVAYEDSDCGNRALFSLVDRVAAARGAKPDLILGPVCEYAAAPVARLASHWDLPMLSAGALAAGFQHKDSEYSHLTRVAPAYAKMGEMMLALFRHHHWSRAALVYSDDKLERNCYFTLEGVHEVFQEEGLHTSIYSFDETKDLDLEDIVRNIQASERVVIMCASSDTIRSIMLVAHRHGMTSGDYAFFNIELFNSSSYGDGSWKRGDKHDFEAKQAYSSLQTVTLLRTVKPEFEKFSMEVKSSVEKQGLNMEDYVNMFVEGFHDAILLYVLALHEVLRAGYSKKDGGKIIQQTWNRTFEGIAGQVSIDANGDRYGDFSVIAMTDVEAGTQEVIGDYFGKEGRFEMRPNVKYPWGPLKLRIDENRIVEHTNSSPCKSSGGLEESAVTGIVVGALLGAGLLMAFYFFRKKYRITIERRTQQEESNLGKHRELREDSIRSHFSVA
In words: competition with fluorescein-labelled CNP-38 27d on NPR-C expressing Hek293 cells, flow cytometry (MFI), 4PL fit; ratio to CNP-38. An excerpt: For the NPR—C affinity assay, a NPR—C expressing Hek293 cell line was developed. The coding region of the NPR—C sequence (BC131540) was cloned into a lentiviral vector under CMV promoter for constitutive receptor expression. A bicistronic element located on the vector for puromycin resistence was used as eukaryotic selection marker. After transduction, stably growing cell pools were subjected to qRT-PCR for confirmation of receptor mRNA-expression compared to parental Hek293 cells. An NPR—C-expressing cell pool was expanded and frozen as master cell bank for CNP sample testing.
For the assay, growing cells were trypsinized from the cell flask bottom, counted, and seeded in a 96-well plate (1.5×10⁵/well) and centrifuged. Supernatants were discarded. CNP standard and sample were serially diluted over 9 steps in PBS 0.2% BSA and transferred to the micro plate in duplicates and mixed with cells. […] Subsequently, cells were analyzed by flow cytometry using mean fluorescence intensity of the FITC channel (FL1, Beckman Coulter FC500MPL) as read out.

Assay [2] concerns the target T2, NPR-B receptor (natriuretic peptide receptor B), endogenous on NIH-3T3 cells (murine (endogenous in NIH-3T3 cells), UniProt Q6VVW5 17-1047).
T2 sequence (looked up): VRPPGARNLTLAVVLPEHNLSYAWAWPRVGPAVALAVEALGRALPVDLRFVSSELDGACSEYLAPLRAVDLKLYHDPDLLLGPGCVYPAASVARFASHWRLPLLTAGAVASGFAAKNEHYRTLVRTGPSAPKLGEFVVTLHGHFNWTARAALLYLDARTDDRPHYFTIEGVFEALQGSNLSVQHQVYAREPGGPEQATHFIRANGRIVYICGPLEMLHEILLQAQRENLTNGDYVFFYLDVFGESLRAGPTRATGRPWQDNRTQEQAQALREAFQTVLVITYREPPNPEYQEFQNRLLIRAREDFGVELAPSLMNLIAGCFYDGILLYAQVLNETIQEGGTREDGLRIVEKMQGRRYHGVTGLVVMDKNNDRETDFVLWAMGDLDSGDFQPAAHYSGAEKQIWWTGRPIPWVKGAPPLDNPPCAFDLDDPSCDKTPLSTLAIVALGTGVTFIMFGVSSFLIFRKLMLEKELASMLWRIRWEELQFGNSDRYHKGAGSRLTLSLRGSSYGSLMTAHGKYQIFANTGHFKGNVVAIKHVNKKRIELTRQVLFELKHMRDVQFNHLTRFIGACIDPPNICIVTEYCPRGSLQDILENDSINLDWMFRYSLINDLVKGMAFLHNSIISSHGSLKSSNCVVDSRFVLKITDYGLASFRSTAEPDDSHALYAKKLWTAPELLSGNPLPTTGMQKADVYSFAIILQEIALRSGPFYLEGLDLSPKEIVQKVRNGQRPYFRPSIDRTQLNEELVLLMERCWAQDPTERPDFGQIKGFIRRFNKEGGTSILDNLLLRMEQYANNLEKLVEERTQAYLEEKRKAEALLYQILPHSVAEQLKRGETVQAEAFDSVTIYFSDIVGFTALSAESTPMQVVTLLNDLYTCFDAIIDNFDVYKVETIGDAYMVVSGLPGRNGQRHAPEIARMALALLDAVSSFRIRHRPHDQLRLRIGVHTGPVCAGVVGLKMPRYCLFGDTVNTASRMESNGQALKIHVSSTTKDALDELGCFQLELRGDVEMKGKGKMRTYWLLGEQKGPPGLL
Briefly: cell-based or functional assay.

The target in assay [3] is T2, NPR-B receptor (natriuretic peptide …). In words: cell-based or functional assay. This is another data set of the same source.

Experimental findings from patent US20260183370A1 (ASCENDIS PHARMA GROWTH DISORDERS A S, published 2026) are described below.

Bridge positions count the residues as written; N and C are the ends. Side chains are listed from the residue outwards. Ends that are not written are not given here. * marks the point of attachment. Hexanoyl(6-maleimido) = O=C1C=CC(=O)N1CCCCCC(=O)*; reversible prodrug linker = not defined here

B1: Permanent N-terminal CNP-38 PEG 5 kDa conjugate 15e (peptide)
peptide: {PEG 5 kDa-Hexanoyl(6-maleimido)}-LQEHPNARKYKGANKKGLSKGCFGLKLDRIGSMSGLGC
modifications: disulfide 22-38
Take B1: the “IC50 of PEGylated CNP-38/IC50 CNP-38” value in assay [1] was determined as 0.53 ratio. In assay [2], the “EC50 compound/EC50 CNP-38 (residual NPR-B activity, cGMP production in NIH-3T3 cells)” value was greater than 5 ratio.

B2: Reversible Lys26 CNP-38 PEG4x10 kDa conjugate 11i (peptide)
peptide: LQEHPNARKYKGANKKGLSKGCFGLK([reversible prodrug linker-4x10 kDa PEG])LDRIGSMSGLGC
modifications: disulfide 22-38; reading uncertain
notes: This is a reversible conjugate with an in vitro release half-life of 9.5 d
On to B2, for which the “IC50 of PEGylated CNP-38/IC50 CNP-38” value in assay [1] is 91 ratio. For the same molecule, the “EC50 compound/EC50 CNP-38 (residual NPR-B activity, cGMP production in NIH-3T3 cells)” value in assay [2] was greater than 100 ratio.

B3: Permanent Lys26 CNP-38 PEG 5 kDa conjugate 19e (peptide)
peptide: LQEHPNARKYKGANKKGLSKGCFGLKLDRIGSMSGLGC
modifications: 5 kDa PEG stably attached through maleimidohexanoyl/thiol to the side chain of Lys26 (ring lysine); disulfide Cys22-Cys38
Turning to B3, the “IC50 of PEGylated CNP-38/IC50 CNP-38” value in assay [1] stood at 1.1 ratio. Besides, the “EC50 compound/EC50 CNP-38 (residual NPR-B activity, cGMP production in NIH-3T3 cells)” value in assay [2] is greater than 100 ratio.

B4: Reversible Lys26 CNP-38 PEG2x20 kDa conjugate 10f (peptide)
peptide: B3 peptide
modifications: disulfide 22-38; not fully specified (residue 26)
notes: This is a reversible conjugate with an in vitro release half-life of 8.5 d
B4: the “IC50 of PEGylated CNP-38/IC50 CNP-38” value in assay [1] was determined as 12 ratio. The “EC50 compound/EC50 CNP-38 (residual NPR-B activity, cGMP production in NIH-3T3 cells)” value in assay [2] was greater than 100 ratio.

B5: Conjugate 31d (4-arm PEG 40 kDa, Lys26 CNP-38, reversible conjugate) (peptide)
peptide: B3 peptide
modifications: not fully specified; Lys26 side chain attached through a reversible Asn-linker (maleimidohexanoyl) to a thiol arm of 4-arm-thiol-PEG 40 kDa; disulfide Cys22-Cys38
With B5, the “IC50 of PEGylated CNP-38/IC50 CNP-38” value in assay [1] worked out at 1.7 ratio.

B6: Released CNP-38 (released from conjugate 11i after 7 d under physiological conditions, isolated by RP-HPLC) (peptide)
peptide: B3 peptide
modifications: disulfide 22-38
Consider B6, for which the “EC50 compound/EC50 CNP-38 (cGMP production in NIH-3T3 cells)” value in assay [3] was determined as 1 ratio.

B7: Permanent Lys26 CNP-38 PEG4x10 kDa conjugate 12g (peptide)
peptide: B3 peptide
modifications: disulfide 22-38; not fully specified (residue 26)
For the molecule B7, the “IC50 of PEGylated CNP-38/IC50 CNP-38” value in assay [1] was determined as 143 ratio. Besides, the “EC50 compound/EC50 CNP-38 (residual NPR-B activity, cGMP production in NIH-3T3 cells)” value in assay [2] was greater than 100 ratio.
